# Source: publication doi:10.1101/2025.10.11.681810
# What was measured:
# [1] = target: recombinant bank vole (BV) PrP(90–231), I109 natural polymorph (bank vole) (UniProt Q8VHV5); assay: SEC
# [2] = target: recombinant bank vole (BV) PrP(90–231), I109 natural polymorph (bank vole) (UniProt Q8VHV5); assay: NMR diffusion
substance,measurement,setting,value
"recombinant bank vole (BV) PrP(90–231), I109 natural polymorph (from UniProt Q8VHV5 90-231) (domain or fragment)",stoichiometry N,[1],12
same,stoichiometry N,[2],16
